Here are results for 1 substance from paper PMC10810272.

Experiment [1] has as its target Candidatus Methanomethylophilus alvus pyrrolysyl-tRNA synthetase (MaPylRS) (Candidatus Methanomethylophilus alvus) (UniProt M9SC49). Kind of experiment: AUC; sedimentation velocity, 20°C, 30 000 rpm; 50 mM MES pH 5.2, 500 mM NaCl, 10 mM MgCl2; multiple concentrations (0.3, 0.6 and 1.2 mg/ml).
Experiment [2] has the same target. Kind of experiment: dynamic light scattering; Nano-S Zetasizer, five measurements; sample at 16 μM (0.5 mg/ml); dimer assigned from HullRad predictions on the crystal structure.

On to “Candidatus Methanomethylophilus alvus pyrrolysyl-tRNA synthetase (MaPylRS) (from UniProt M9SC49 1-275) (enzyme)”, for which the stoichiometry N in experiment [1] and in experiment [2] was 2 throughout.
